Experimental data published in patent publication US20130295021A1 (published 2013).
Numbering of substitutions follows the chain as printed. In names and notes the source's numbering stands. Values belong to the binder of their own block, whether it stands above or below them. Non-standard residues stand in square brackets, D forms with d. No end group written: not given here. pT = C[C@@H](OP(=O)(O)O)[C@H](N)C(=O)O

How the values were obtained:
[1] = target: T1, recombinant human tau, isoform Tau-F of 441aa (hTau40) (human, UniProt P10636 1-758); assay: direct ELISA, hTau40 coated at 3 µg/ml
T1 construct: Bought from rPeptide (Bogart, USA); also called full-length tau; rTau
Excerpt: (§1) The EC₅₀ values were estimated by a non-linear regression using GraphPad Prism software.

[2] = target: T1, recombinant human tau, isoform Tau-F of …; assay: direct ELISA, hTau40 coated at 3 µg/ml (legend of FIG. 7)
Excerpt: as §1

[3] = target: T2, PHFTau, paired helical filaments containing pathologically phosphorylated tau filaments extracted from AD … (human, UniProt P10636-8 1-441, limits assumed, pathologically phosphorylated; sites not given); assay: direct ELISA, PHFTau coated at 1:100; PHFTau coated at 1:100
T2 construct: Brain extract, aggregated and phosphorylated; also called pathologically modified tau isoforms
Procedure: (§2) ELISA plates were coated with recombinant human tau (hTau40, 1 ug/ml), PHFTau (1:100) and control preparation (1:100), and incubated with varying antibody concentrations.

[4] = target: T3, bovine serum albumin (BSA) (UniProt P02769 25-607); assay: direct ELISA, plates coated with BSA
T3 construct: Control antigen
Procedure: To validate tau as a recognized target of isolated antibodies direct ELISA assays were performed as described above. […] No binding is observed to BSA (FIG. 10).

[5] = target: T4, His-tagged tau domain II (AA 136-258 of hTau40) (human, UniProt P10636 387-575); assay: Western blot
T4 construct: Expressed in E. coli BL21 (DE3) and purified on Ni-NTA
Procedure: (§3) DNA fragments, synthesized using GeneArt® (Invitrogen), which encode each Tau domain with 6×His tagged at the N-terminus were cloned into the pRSET-A expression vector (Invitrogen), were transfected into E. Coli BL21 (DE3) (New England Biolabs). The expressions of the His-tagged Tau domains were induced by 0.5 mM IPTG for six hours before bacteria were lysed with lysozyme with sonication. The lysate was boiled for five minutes before being further purified with Ni-NTA Superflow Columns (Qiagen). The eluted His-tagged Tau domains were coated on ELISA plates or loaded on polyacrylamide gel for Western Blot. These sequentially overlapping tau domain polypeptides cover the full length of hTau40 (FIG. 13A).

[6] = target: T5, His-tagged tau domain III (AA 235-373 of hTau40) (human, UniProt P10636 552-690); assay: Western blot
T5 construct: Expressed in E. coli BL21 (DE3) and purified on Ni-NTA
Procedure: as §3

[7] = target: T6, His-tagged tau domain IV (AA 355-441 of hTau40) (human, UniProt P10636 672-758); assay: Western blot
T6 construct: Expressed in E. coli BL21 (DE3) and purified on Ni-NTA
Procedure: as §3

[8] = target: T1, recombinant human tau, isoform Tau-F of …; assay: direct ELISA, hTau40 coated at 1 ug/ml; hTau40 coated at 1 ug/ml
Procedure: (§4) 96 well microplates (Costar, Corning, USA) were coated with recombinant Tau protein (hTau40, rPeptide, Bogart, USA) diluted to a concentration of 1 μg/ml in carbonate ELISA coating buffer (50 mM, pH9.6) at 4° C. over night. Non-specific binding sites were blocked for 2 hr at RT with PBS containing 2% BSA (Sigma, Buchs, Switzerland) and 0.5% Tween20. […] EC₅₀ values were estimated by a non-linear regression using GraphPad Prism software (San Diego, USA).
as §2

[9] = target: T1, recombinant human tau, isoform Tau-F of …; assay: ELISA on recombinant tau (FIG. 15)
[10] = target: T1, recombinant human tau, isoform Tau-F of …; assay: ELISA on recombinant tau
[11] = target: T1, recombinant human tau, isoform Tau-F of …; assay: direct ELISA, hTau40 coated at 1 µg/ml
Procedure: as §4, §1

[12] = target: T1, recombinant human tau, isoform Tau-F of …; assay: direct ELISA, hTau40 coated at 1 µg/ml (legend of FIG. 2)
Procedure: as §4, §1

[13] = target: T7, peptide corresponding to amino acids 333-346 of hTau40 with an additional C-terminal cysteine (human); assay: direct ELISA on coated peptide (legend of FIG. 5)
T7 peptide: GGGQVEVKSEKLDFC

[14] = target: T8, peptide corresponding to amino acids 226-239 of human tau (226VAVVRpTPPKSPSSA239), cognate epitope of AT180 (human); assay: direct ELISA on coated peptide
T8 peptide: VAVVR[pT]PPKSPSSA

T1 sequence (P10636 other isoform, or with tags, fused parts or gaps limits assumed): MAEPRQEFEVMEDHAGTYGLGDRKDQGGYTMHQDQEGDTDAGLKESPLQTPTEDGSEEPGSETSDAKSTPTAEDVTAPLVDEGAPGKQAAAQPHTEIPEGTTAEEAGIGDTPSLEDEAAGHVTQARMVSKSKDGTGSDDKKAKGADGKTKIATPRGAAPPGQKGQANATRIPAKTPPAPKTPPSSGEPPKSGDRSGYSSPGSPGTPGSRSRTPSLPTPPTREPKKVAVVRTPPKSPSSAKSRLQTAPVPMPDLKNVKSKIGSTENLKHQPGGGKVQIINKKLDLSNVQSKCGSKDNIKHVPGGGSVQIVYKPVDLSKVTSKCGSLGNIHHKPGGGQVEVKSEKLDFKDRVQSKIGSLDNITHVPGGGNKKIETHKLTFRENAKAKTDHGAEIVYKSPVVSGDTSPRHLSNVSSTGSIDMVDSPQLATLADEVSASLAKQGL
T6 sequence (P10636 other isoform, or with tags, fused parts or gaps): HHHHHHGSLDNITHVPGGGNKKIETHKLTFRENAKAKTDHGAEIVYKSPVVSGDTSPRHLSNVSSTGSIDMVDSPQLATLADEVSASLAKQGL
T2 sequence (P10636 other isoform, or with tags, fused parts or gaps limits assumed): as the sequence (P10636 other isoform, or with tags, fused parts or gaps limits assumed) above
T3 sequence (P02769 25-607 limits assumed): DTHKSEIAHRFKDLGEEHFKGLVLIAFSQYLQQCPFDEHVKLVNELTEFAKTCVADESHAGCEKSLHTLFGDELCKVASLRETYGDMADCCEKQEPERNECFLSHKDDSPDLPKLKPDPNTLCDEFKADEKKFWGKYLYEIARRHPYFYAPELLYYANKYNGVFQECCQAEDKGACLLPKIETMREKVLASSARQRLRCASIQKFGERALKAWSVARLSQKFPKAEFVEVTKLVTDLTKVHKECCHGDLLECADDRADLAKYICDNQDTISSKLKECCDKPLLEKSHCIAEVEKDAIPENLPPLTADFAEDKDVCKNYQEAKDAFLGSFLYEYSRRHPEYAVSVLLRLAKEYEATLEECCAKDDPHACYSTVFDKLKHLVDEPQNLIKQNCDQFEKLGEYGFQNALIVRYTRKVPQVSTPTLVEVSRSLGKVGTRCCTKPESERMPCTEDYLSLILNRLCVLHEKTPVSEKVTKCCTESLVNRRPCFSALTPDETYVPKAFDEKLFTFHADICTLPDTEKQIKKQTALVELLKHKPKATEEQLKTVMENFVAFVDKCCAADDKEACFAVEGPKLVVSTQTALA
T5 sequence (P10636 other isoform, or with tags, fused parts or gaps): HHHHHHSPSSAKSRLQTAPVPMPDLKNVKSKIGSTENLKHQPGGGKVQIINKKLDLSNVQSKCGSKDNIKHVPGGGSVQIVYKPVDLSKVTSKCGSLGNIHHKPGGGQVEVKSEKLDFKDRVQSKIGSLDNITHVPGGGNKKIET
T4 sequence (P10636 other isoform, or with tags, fused parts or gaps): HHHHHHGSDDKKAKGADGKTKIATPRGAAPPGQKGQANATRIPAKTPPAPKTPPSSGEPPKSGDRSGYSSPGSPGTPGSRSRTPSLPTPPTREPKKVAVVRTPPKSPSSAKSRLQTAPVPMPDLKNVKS

EC50 [1]: 6.6 nM
EC50 [2]: 6 nM
B1: recombinant human tau antibody NI-105.24B2 (antibody, human IgG1, V domains shown)
VH: QVQLVQSGAEVKKPGASVKVSCKASGYTFVNYIIHWVRQAPGQGLEWMGIINPNGGNTSYAEKFQARVTLTSDTSTSTVYMDLSSLTSEDTAVYYCAVLSPSNPWGQGTTVTVSS
VL: SYELTQPPSVSVSPGQTAGITCSGDALPKQFVYWYQKKPGQAPVLLIYKDTERPSRIPERFSGSTSGTTVALTINGVQAEDEADYYCQSADRSGALWVFGGGTKLTVL

EC50 [3]: 1.2 nM
binding result [4]: no binding
binding result [5]: no binding
binding result [6]: no binding
binding result [7]: no binding
EC50 [8]: 1.4 nM
B2: recombinant human tau antibody NI-105.4A3 (antibody, human IgG1, V domains shown)
VH: QVQLVESGGGAVQPGGSLRLSCAASGFTFSDYAMHWVRQAPGKGLQWVAVISYEGTYKYYADSVKGRFTISRDNSKNTLNLQMSSLRVEDTAVYFCVKARAFASGQRSTSTVPDYWGQGTLVTVSS
VL: SYELTQPPSVSVSPGQTARITCSGDALPKKYAYWYQQKSGQAPVLVIYEDNKRPSGIPERFSGSSSGTVATLTISGAQVDDEADYYCYSTDISGDLRVFGGGTKLTVL

fold higher apparent binding affinity relative to the original, glycosylated antibody (ch4E4) [9]: ~4 fold
EC50 (read off the curve) [10]: ~0.04 µg/mL
B3: ch4E4(N30Q), mouse IgG2a/lambda (antibody, V domains shown)
VH: EVQLVESGGGLVQPGGSLKLSCAASGFNFQISAIHWVRQASGKGLEWVGRIRSKSHNYATLYAASLKGRFTLSRDDSRNTAYLQMSSLQTEDMAVYYCTVLSANYDTFDYWGQGTLVTVSS
VL: SYELTQPPSVSVSPGQTARISCFGDTLPKQYTYWYQQKPGQAPVLVIYKDTERPSGIPERFSGSSSGTTVTLTISGVQAEDEADYYCLSADNSATWVFGGGTKVTVLG
notes: Produced in and purified from CHO cells; also called the modified antibody

EC50 (read off the curve) [10]: ~0.04 µg/mL
B4: ch4E4(N30Q) mIgG1 Agly (antibody, V domains shown)
VH: B3 VH
VL: B3 VL
notes: also called ch4E4(N30Q) IgG 1-Agly; mouse chimeric aglycosylated variant of 4E4

EC50 [11]: 2.4 nM
EC50 [12]: 2 nM
binding result [13]: binds
binding result [14]: no binding
B5: recombinant human tau antibody NI-105.4E4 (antibody, V domains shown)
VH: B3 VH with Q30N
VL: SYELTQPPSVSVSPGQTARISCFGDTLPKQYTYWYQQKPGQAPVLVIYKDTERPSGIPERFSGSSSGTTVTLTISGVQAEDEADYYCLSADNSATWVFGGGTKVTVL

EC50 (read off the curve) [10]: ~0.2 µg/mL
B6: chimeric 4E4 (ch4E4), mouse IgG2a/lambda (antibody, V domains shown)
VH: B3 VH with Q30N
VL: B3 VL
modifications: N-glycan on Asn-30 (fully occupied on CHO expression)
notes: also called original, glycosylated antibody
